Experimental data: the Human Domainome abundance scans (Beltran et al. 2025)

B1: Protein S100-G, residues 1 to 79; numbered along this chain, P02633 (parent)
chain: MSAKKSPEELKGIFEKYAAKEGDPNQLSKEELKLLLQTEFPSLLKGPSTLDELFEELDKNGDGEVSFEEFQVLVKKISQ

Variants of: B1
Experiment: abundance fitness (aPCA) (normalised: wild type 0, dead -1); higher = more abundant; growth selection in yeast, the domain comes from the species named
Details: Bos taurus

Abundance fitness of substitutions, site by site:
Q26: G -0.031, L 0.006, A -0.062, I 0.003, K -0.05, F -0.043, C -0.082, E 0.012, H -0.075, D -0.155
K20: E -0.119, V -0.077, L -0.067, W -0.181, A -0.119, F -0.159, I -0.098, S -0.088, Y -0.112, Q 0.04, G -0.01, M 0.053, R 0.012, C -0.263, D -0.05, N -0.012
A19: T 0.143, M -0.015, Q 0.028, L 0.02, G 0.058, R -0.073, I -0.018, K 0.048, N -0.017, P -0.132, F -0.057, H -0.013, S 0.007, V -0.062, C -0.009, W -0.111, D -0.034
D23: M -0.104, P -0.139, N -0.013, Y -0.081, S -0.036, H -0.074, T 0.005, G -0.091, A -0.009, E -0.053, F -0.079, V -0.065, L -0.034, W -0.254, Q -0.046, K -0.157, C -0.064, R -0.043
A18: N -0.362, F -0.367, D -0.846, H -0.195, E -0.904, W -0.516, V -0.115, R -0.161, G -0.077, Q -0.248, I -0.248, K -0.224, M -0.161, Y -0.424, T -0.15, L -0.242, S -0.055, P -0.968
G22: T -0.22, F -0.431, S -0.114, H -0.103
